Source: the supplement of paper PMC10201428
± gives the standard deviation of the averaged measurements.

How the values were obtained:
[1] = tested on: VchCAST RNA-guided transposition machinery (E. coli BL21(DE3) host, lacZ target); assay: relative integration efficiency (T-RL orientation) vs wild-type transposon end (log2 (normalized fold change)); transposon end mutated: right end (5 bp flank + 75 bp right end); higher = more efficient transposition
How it was run: (§1)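 Pools of 1549 left-end or 1849 right-end barcoded transposon variants were cloned into a pUC57 mini-transposon donor and co-transformed into E. coli BL21(DE3) with a T7-driven effector plasmid carrying a CRISPR array, tniQ-cas8-cas7-cas6 and tnsA-tnsB-tnsC. Plating used 0.1 mM IPTG at 37°C for 18 h, and input plasmids and genomic integration junctions were PCR-amplified for Illumina sequencing, with two biological output replicates and four reference barcodes. Relative integration efficiency is the log-transformed fold change of output over input barcode abundance, normalised to the reference barcodes.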

[2] = tested on: VchCAST RNA-guided transposition machinery (E. coli BL21(DE3) host, lacZ target); assay: relative integration efficiency (T-LR orientation) vs wild-type transposon end (log2 (normalized fold change)); transposon end mutated: right end (5 bp flank + 75 bp right end); higher = more efficient transposition
How it was run: as §1

Row | Sequence | relative integration efficiency (log2) [1] | relative integration efficiency (log2) [2]
1 | ACATTTGTTGATACAACCATAAAGTGATATTTACAACCATAAGTTGATATTTTTCACAACCATAAGTTGATATTTTCTCTGATCATAGTCAGACCAACATTGCTACGACCCGTATTCGCACCGACAC | 0.36 ± 0.12 | 0.284 ± 0.16
2 | ACATTTGTTGATACAACCATAAAGTGATATTTACAACCATAAGTTGATATTTTTCACAACCATATATTGATATCTCCTCTGATCATAGTCAGACCAACATTGCTACGACCCGTATTCGCACCGACAC | 0.0944 ± 0.13 | 0.346 ± 0.17
3 | ACATTTGTTGATACAACCATAAAGTGATATTTACAACCATAAGTTGATATTTTTCACACCCATAAATTGATAATTACTCTGATCATAGTCAGACCAACATTGCTACGACCCGTATTCGCACCGACAC | -0.192 ± 0.21 | 0.0675 ± 0.11
4 | ACATTTGTTGATACAACCATAAAGTGATATTTACAACCATAAGTTGATATTTTTCACACCCATAAATTGATATTGCCTCTGATCATAGTCAGACCAACATTGCTACGACCCGTATTCGCACCGACAC | -0.0454 ± 0.018 | 0.319 ± 0.19
5 | ACATTTGTTGATACAACCATAAAGTGATATTTACAACCATAAGTTGATATTTTTCAGTGGGTATTTAACTATAACGCTCTGATCATAGTCAGACCAACATTGCTACGACCCGTATTCGCACCGACAC | -0.682 ± 0.18 | 2.73 ± 0.16
6 | ACATTTGTTGATACAACCATAAAGTGATATTTACAACCATATATTGATATCTCTCACAACCATAAAATGATAATTACTCTGATCATAGTCAGACCAACATTGCTACGACCCGTATTCGCACCGACAC | -0.337 ± 0.17 | -0.162 ± 0.091
7 | ACATTTGTTGATACAACCATAAAGTGATATTTACAACCATATATTGATATCTCTCACAACCATAAAGTGATATTTACTCTGATCATAGTCAGACCAACATTGCTACGACCCGTATTCGCACCGACAC | -0.357 ± 0.21 | -0.115 ± 0.5
8 | ACATTTGTTGATACAACCATAAAGTGATATTTACAACCATATATTGATATCTCTCACAACCATAAGTTGATATTTTCTCTGATCATAGTCAGACCAACATTGCTACGACCCGTATTCGCACCGACAC | -0.0164 ± 0.24 | 0.252 ± 0.15
9 | ACATTTGTTGATACAACCATAAAGTGATATTTACAACCATATATTGATATCTCTCACAACCATATATTGATATCTCCTCTGATCATAGTCAGACCAACATTGCTACGACCCGTATTCGCACCGACAC | -0.415 ± 0.28 | 0.32 ± 0.11
10 | ACATTTGTTGATACAACCATAAAGTGATATTTACAACCATATATTGATATCTCTCACACCCATAAATTGATAATTACTCTGATCATAGTCAGACCAACATTGCTACGACCCGTATTCGCACCGACAC | 0.065 ± 0.054 | 0.444 ± 0.39
11 | ACATTTGTTGATACAACCATAAAGTGATATTTACAACCATATATTGATATCTCTCACACCCATAAATTGATATTGCCTCTGATCATAGTCAGACCAACATTGCTACGACCCGTATTCGCACCGACAC | -0.378 ± 0.18 | 0.352 ± 0.16
12 | ACATTTGTTGATACAACCATAAAGTGATATTTACAACCATATATTGATATCTCTCAGTGGGTATTTAACTATAACGCTCTGATCATAGTCAGACCAACATTGCTACGACCCGTATTCGCACCGACAC | -1.32 ± 0.41 | 2.6 ± 0.17
13 | ACATTTGTTGATACAACCATAAAGTGATATTTACACCCATAAATTGATAATTATCACAACCATAAAATGATAATTACTCTGATCATAGTCAGACCAACATTGCTACGACCCGTATTCGCACCGACAC | 0.256 ± 0.0071 | -0.112 ± 0.54
14 | ACATTTGTTGATACAACCATAAAGTGATATTTACACCCATAAATTGATAATTATCACAACCATAAAGTGATATTTACTCTGATCATAGTCAGACCAACATTGCTACGACCCGTATTCGCACCGACAC | -0.155 ± 0.041 | -0.0182 ± 0.15
15 | ACATTTGTTGATACAACCATAAAGTGATATTTACACCCATAAATTGATAATTATCACAACCATAAGTTGATATTTTCTCTGATCATAGTCAGACCAACATTGCTACGACCCGTATTCGCACCGACAC | -0.313 ± 0.23 | -0.245 ± 0.3
16 | ACATTTGTTGATACAACCATAAAGTGATATTTACACCCATAAATTGATAATTATCACAACCATATATTGATATCTCCTCTGATCATAGTCAGACCAACATTGCTACGACCCGTATTCGCACCGACAC | -0.382 ± 0.084 | -0.0754 ± 0.42

Row | Sequence | relative integration efficiency (log2) [1] | relative integration efficiency (log2) [2]
17 | ACATTTGTTGATACAACCATAAAGTGATATTTACACCCATAAATTGATAATTATCACACCCATAAATTGATAATTACTCTGATCATAGTCAGACCAACATTGCTACGACCCGTATTCGCACCGACAC | 0.112 ± 0.071 | -0.191 ± 0.54
18 | ACATTTGTTGATACAACCATAAAGTGATATTTACACCCATAAATTGATAATTATCACACCCATAAATTGATATTGCCTCTGATCATAGTCAGACCAACATTGCTACGACCCGTATTCGCACCGACAC | -0.207 ± 0.081 | -0.336 ± 0.44
19 | ACATTTGTTGATACAACCATAAAGTGATATTTACACCCATAAATTGATAATTATCAGTGGGTATTTAACTATAACGCTCTGATCATAGTCAGACCAACATTGCTACGACCCGTATTCGCACCGACAC | -0.826 ± 0.22 | 2.57 ± 0.054
20 | ACATTTGTTGATACAACCATAAAGTGATATTTACACCCATAAATTGATATTGCTCACAACCATAAAATGATAATTACTCTGATCATAGTCAGACCAACATTGCTACGACCCGTATTCGCACCGACAC | -0.254 ± 0.19 | 0.169 ± 0.17
21 | ACATTTGTTGATACAACCATAAAGTGATATTTACACCCATAAATTGATATTGCTCACAACCATAAAGTGATATTTACTCTGATCATAGTCAGACCAACATTGCTACGACCCGTATTCGCACCGACAC | -0.237 ± 0.17 | 0.171 ± 0.15
22 | ACATTTGTTGATACAACCATAAAGTGATATTTACACCCATAAATTGATATTGCTCACAACCATAAGTTGATATTTTCTCTGATCATAGTCAGACCAACATTGCTACGACCCGTATTCGCACCGACAC | -0.138 ± 0.13 | 0.0642 ± 0.26
23 | ACATTTGTTGATACAACCATAAAGTGATATTTACACCCATAAATTGATATTGCTCACAACCATATATTGATATCTCCTCTGATCATAGTCAGACCAACATTGCTACGACCCGTATTCGCACCGACAC | -0.534 ± 0.18 | 0.671 ± 0.21
24 | ACATTTGTTGATACAACCATAAAGTGATATTTACACCCATAAATTGATATTGCTCACACCCATAAATTGATAATTACTCTGATCATAGTCAGACCAACATTGCTACGACCCGTATTCGCACCGACAC | -0.232 ± 0.12 | 0.595 ± 0.26
25 | ACATTTGTTGATACAACCATAAAGTGATATTTACACCCATAAATTGATATTGCTCACACCCATAAATTGATATTGCCTCTGATCATAGTCAGACCAACATTGCTACGACCCGTATTCGCACCGACAC | -0.333 ± 0.062 | 0.438 ± 0.27
26 | ACATTTGTTGATACAACCATAAAGTGATATTTACACCCATAAATTGATATTGCTCAGTGGGTATTTAACTATAACGCTCTGATCATAGTCAGACCAACATTGCTACGACCCGTATTCGCACCGACAC | -0.797 ± 0.16 | 2.56 ± 0.28
27 | ACATTTGTTGATACAACCATAAATACTTAATTACACCCATAAATTGATAATTATCACACCCATAAATTGATATTGCCTCTGATCATAGTCAGACCAACATTGCTACGACCCGTATTCGCACCGACAC | -2.25 ± 0.17 | -2.42 ± 0.21
28 | ACATTTGTTGATACAACCATAAATAGATAATTACACCCATAAATTGATAATTATCACACCCATAAATTGATATTGCCTCTGATCATAGTCAGACCAACATTGCTACGACCCGTATTCGCACCGACAC | -0.642 ± 0.046 | -0.506 ± 0.44
29 | ACATTTGTTGATACAACCATAAATTGATAATTACACCCATAAAATGATAATTATCACACCCATAAAATGATATTGCCTCTGATCATAGTCAGACCAACATTGCTACGACCCGTATTCGCACCGACAC | -0.12 ± 0.2 | -0.368 ± 0.16
30 | ACATTTGTTGATACAACCATAACATGATAATTACACCCATAACTTGATAATTATCACACCCATAACTTGATATTGCCTCTGATCATAGTCAGACCAACATTGCTACGACCCGTATTCGCACCGACAC | -0.3313 ± 0.00055 | -0.127 ± 0.35
31 | ACATTTGTTGATACAACCATAACCGTATAATTACACCCATAAATTGATAATTATCACACCCATAAATTGATATTGCCTCTGATCATAGTCAGACCAACATTGCTACGACCCGTATTCGCACCGACAC | -1.41 ± 0.21 | -1.78 ± 0.49
32 | ACATTTGTTGATACAACCATAACCGTCGCCGGCACAAACGCCCGGTCGCCGGCGACACAAACGCCCGGTCGCGGTAAGAGGATCATAGTCAGACCAACATTGCTACGACCCGTATTCGCACCGACAC | -7.77 ± 0.98 | -6.09 ± 0.56
